Experimental data taken from the DeepSol protein solubility set.

Assay: soluble on expression in E. coli; label from the status in PepcDB or PDB records

Sequence | soluble on expression in E. coli
LESLEVMIMLDTLRAINNPLNDYALVALLRSPMFNFNEDDLTRIAVQADKGQFYDKLLAAHTKSGLHPEVVMQGLEAKLTLFTETLADWRDYSKCHSIYDLIWKIYNDRFYYDYVGGLPRAEQRQANLYALALRANAYEKTGFKGLSRFIGMI | not soluble
GSHMIAPLSVKDNDKWVDTHVGKTTEIHLKGNPTTGYMWTRVGFVGKDVLSDEILEVVCKYTPTPSSTPMVGVGGIYVVLVKPRKRGHHTLELVYTRPFEGIKPENERYTLHLNVK | soluble
MESAIKKRRLEDSKLLGDLWQRLSHSRKKLMEIFHIILNQICLLPILESSCDNIHGFIEEFLQIFSSLLQEKRFLRDYDALFPVAEDISLLQQASSVLDETRTAYILQAVESAWEGVDRRKATDAKDPSVIEEPNGEPNGVTVTAEAVSQASSHPENSEEEECMGAAAAVGPAMCGVELDSLISQVKDLLPDLGEGFILACLEYYHYDPEQVINNILEERLAPTLSQLDRNLDREMNPDPTPLLTSRHNVFQNDEFDVFSRDSVDLSRVHKGKSTRKEENTRSLLNDKRAVAAQRQCYEQYSVVVEEVPLQPGESLPYHSVYYEDEYDDTYDGNQVGANDADSDDELISRRPFTIPQVLRTKVPREGQEEDDDDEEDDADEEAPKPDHFVQDPAVLREKAEARRMAFLAKKGYRHDSSTAVAGSPRGHGQSRETTQERRKKEANKATRANHNRRTMADRKRSKGMIPS | soluble
MEGVQEVEIDAPLSGWHPAEGEDASFSQSINYPASSVNMADDQNISAQIRGKIKNYAAAGKVQQGRLVVNGASMPQRIESDGSFARPYIFTEGSNSVQVISPDGQSRQKMQFYSTPGTGTIRARLRLVLSWDTDNTDLDLHVVTPDGEHAWYGNTVLKNSGALDMDVTTGYGPEIFAMPAPIHGRYQVYINYYGGRSETELTTAQLTLITDEGSVNEKQETFIVPMRNAGELTLVKSFDWLEHHHHHH | not soluble
MSESITITANSIDNPETDVRRNERFHLVPRKRLEALVTTSGLIGAMIGFYDGVKISSLRYLTENAHRMPKTVGGWYFYHKKKNYVMIVAGVKKAITTSFKYGAAVGGFFGLEYLLDISRGNTIDFFNTTTAAFLTSTFYAKYNKLSSMQTRKMIFKGTALGLTLGLIQDYLIHARKGRVWYLDRYTQQKLV | not soluble
SMTTTTTTISQHNFYGAGDSETCISIIENLKEEYGLFVWPCSVILAEYVWQHRSRFRDSSILELGAGTSLPGLVAAKVGANVTLTDDATKPEVLDNMRRVCELNKLNCNVLGLTWGVWDAPILDLRPNIILGADVLYDSSGSFHLFLFWVLAFSFSPCE | soluble
MGSDKIHHHHHHMSFFPGPDPLAGDKPACDAIEHLIIPRTSDIGGLQVRRALPTAKRRLVGPFIFFDRMGPALLRAGQAIDVRPHPHIGLSTVTYLFDGEIKHRDSLGTEMVIRPGDVNLMTAGRGIVHSERSPENQRGHERSLSGLQTWLALPDAMEEIDPVFAHTEERMLPHLADGGVRARVVIGQFEGAASPVSTFTDTIYVDLMIEPGKSAPFAANWEERALYILSGEAIIAGDHFDNNQLLVFRPGDEITITAGPAGCHVMLFGGAALGSPRHIWWNFVSSSKERIDKAKEEWRTGRFDIVPGDEEEFIPLPAS | not soluble
MGSDKIHHHHHHMAEDLTPEGGDRAPSKDGSVPAYAGRQSADPGWEWGKIRGDFWKHRNEKPLYSIDGSNVDKYAEQLTPGQVQLVKQKKGYRMDVYPSHRECQASDFVAQNSKANLTGAKLDSTGEQLQTAILPGVPFPQPKNGAEAMLNYLMRYRGEGIEWPSVVTTVSPRPGSSDWIDAISTATQYFPASKQGKRTPHDVDQLSSATFFKMESPPALAGQAFVQRQFFNKDPETFYYFPGQRRVRRMPAYTHDAPAIGFENQYLIDEANMFFGAIDRFDWKLAGKKEMIVPYNAFGMYKFNDKLHDVVTPDGIAAANRRYEMHRVWVVEATLKPSARHVASKKVFYLDEDSWLALVANDYDAQGKLWRVRESYPIPVWELGGACDNEPFAQYDLINGRYVTDQSTIGQGKDIRWYEKTNDPRFKPDFFTSESLRSVSER | not soluble
MAHHHHHHMVWKGSRERGVQEYRKKSKGNKPTKGEKVSKKGVSSSRQPKQRELLSAKQQQQQNRKNEELRAALAGAFSTEVSSSNAGPAFDGYGKGSPTDRLQFGYAPAVAAEAVAYHSTISTDAWIEARRTRYRTAIVEQKKLRRPNCEPITSILKLQGHWRSTELFEREVHGSHAVAQDKVDDILDTFVSRQRVA | not soluble
MERITVTLGERSYPITIAAGLFNEPASFLPLKSGDQVMLVTNETLAPLYLDKVRGVLERAGVNVDSVILPDGEQYKSLTVLDTVFTALLKKPHGRDTTLVALGGGVIGDLTGFAAASYQRGVRFIQVPTTLLSQVDSSVGGKTAVNHPLGKNMIGAFYQPASVVVDLDCLKTLPARELTSGLAEVIKYGIILDADFFTWLEGNLDALLRLDGPAMAYCIRRCCELKAEVVAADEREAGLRALLNLGHTFGHAIEAEMGYGNWLHGEAVAAGIVMAARASERLGQFSSADTQRIIALLERAGLPVNGPCEMSAQDYLPHMLRDKKVLAGELRLVLPLAIGKSEVRGGVSHEVVLSAIADCQQA | not soluble
MGSDKIHHHHHHMVGIGFRKDFAAKFLNTTDLQPDFIEVAPENWIGIGGLWKKRLQQALEKYPLYTHGLSLSIGSPDALDFDLLKGVKKFLAETGAKVYSEHLSYSKCDNAHLYDLLPIPFTHDAVKHIAKRIQTIQDFLERRLAIEIVSYYSPVAAEMSELEFVNAILQESDCDLLLDVNNIYVNGFNHNYDPYAFINQLPLERVAYIHIAGHDQVSETLIIDTHGEAIVDPVYYLYQYTMNQLQRDVPTLLERDFNIPQLSELQGEIDRLKKIKADCLTKELYGIQR | not soluble
MAEGVADRIIGLYSLGNSTREISDWLKENLGNRVSDETISSITDRVLPEIKVWRSRILDDVYSIVWINAIHYKVTDERGCTVTRAIYNVLGIDKEGHKDLLGMYISKNEGANFWLNVLTDLQNRGVHDILIAYVDGLKGWMPPKVFFRTQYYNFVSSTRYGTPLNMSVVSIRRNSSKT | not soluble
MGHHHHHHSHVFKIEDKIGEGTFSSVYLATAQLQVGPEEKIALKHLIPTSHPIRIAAELQCLTVAGGQDNVMGVKYCFRKNDHVVIAMPYLEHESFLDILNSLSFQEVREYMLNLFKALKRIHQFGIVHRDVKPSNFLYNRRLKKYALVDFGLAQGTHDTKIELLKFVQSEAQQERCSQNKSHIITGNKIPLSGPVPKELDQQSTTKASVKRPYTNAQIQIKQGKDGKEGSVGLSVQRSVFGERNFNIHSSISHESPAVKLMKQSKTVDVLSRKLATKKKAISTKVMNSAVMRKTASSCPASLTCDCYATDKVCSICLSRRQQVAPRAGTPGFRAPEVLTKCPNQTTAIDMWSAGVIFLSLLSGRYPFYKASDDLTALAQIMTIRGSRETIQAAKTFGKSILCSKEVPAQDLRKLCERLRGMDSSTPKLTSDIQGHASHQPAISEKTDHKASC | soluble
MGSDKIHHHHHHMLGMPTVLGVVLRMGRELWWCSLRPVSMLKEYAYCPRVAYYMEVLRPSYRPTEPMNLSREIYSVDHVRGILRSSGFRIVKEEWAVPLRSKRLGLQGVADGVVVEGSLGIIVVEAKLSVRSNRWLHTRGRHVIFQAAAYALALEETRGYSVDYLAIVSLEDSKTYVVKMSPSLRRDVIRLADDMNKTLDDGLEPPPKPGRKCVACRFRRVCQPWVAERGSER | not soluble
MKMMPSKLQKNKQRLRNDPLNQNKGKPDLNTTLPIRQTASIFKQPVTKVTNHPSNKVKSDPQRMNEQPRQLFWEKRLQGLSASDVTEQIIKTMELPKGLQGVGPGSNDETLLSAVASALHTSSAPITGQVSAAVEKNPAVWLNTSQPLCKAFIVTDEDIRKQEERVQQVRKKLEEALMADILSRAADTEEMDIEMDSGDEALEHHHHHH | soluble
MNIAVASGKGGTGKTTVAVNLAASYAMQGLPVTLVDCDVEEPNAHLFVDARWQVRSLCGVPVPAIDPDRCLGESCRRCVEACRFKALAMLGGELLVFAELCHGCGLCELVCPAGVVGTASRPVGEVRQGVASCHVHGETCHMAFRDGVLRVGEAMATPLIKAVKRTAEDANATSHAGYGVTLWDCPPGTACATINALDEADFVVLVAESTAFGLHDLRLAVGLVCHLGLPHGIVINRFGMGDDRVATWAASEGIDVLGRLPFSLEAASRNAGGGLLLDASHDLEAAYRDLGARLLEKGIRSLEHHHHHH | not soluble
